The values that follow come from patent US6624144B1, “Matrix metalloproteinase inhibitors and down-regulators” (CTT Cancer Targeting Technologies Oy, priority 1998, dated 2003).

The nature of data set [1]: Solubility in aqueous buffers.
The next data set deals with T1, proMMP-2 (human, UniProt P08253 30-660).
T1 sequence (looked up): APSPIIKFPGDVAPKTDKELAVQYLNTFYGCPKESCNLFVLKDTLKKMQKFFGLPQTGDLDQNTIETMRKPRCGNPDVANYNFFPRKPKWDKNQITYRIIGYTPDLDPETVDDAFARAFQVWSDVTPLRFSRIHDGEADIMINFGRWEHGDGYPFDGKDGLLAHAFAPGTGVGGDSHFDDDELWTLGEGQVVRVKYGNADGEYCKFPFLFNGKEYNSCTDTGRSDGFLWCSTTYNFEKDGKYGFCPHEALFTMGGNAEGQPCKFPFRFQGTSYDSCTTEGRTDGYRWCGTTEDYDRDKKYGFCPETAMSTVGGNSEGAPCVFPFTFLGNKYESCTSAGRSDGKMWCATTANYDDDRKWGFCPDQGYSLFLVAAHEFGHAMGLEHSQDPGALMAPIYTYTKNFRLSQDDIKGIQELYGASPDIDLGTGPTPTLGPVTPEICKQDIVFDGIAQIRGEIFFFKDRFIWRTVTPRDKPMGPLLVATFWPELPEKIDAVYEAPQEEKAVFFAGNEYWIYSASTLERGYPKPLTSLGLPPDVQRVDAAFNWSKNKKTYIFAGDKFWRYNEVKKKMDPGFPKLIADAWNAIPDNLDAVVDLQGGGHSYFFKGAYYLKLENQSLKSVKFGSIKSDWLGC
The data set can be described thus: cell-based or functional assay.

The target in the next data set is T2, APMA-activated MMP-2 (human, UniProt P08253 30-660).
T2 sequence (looked up): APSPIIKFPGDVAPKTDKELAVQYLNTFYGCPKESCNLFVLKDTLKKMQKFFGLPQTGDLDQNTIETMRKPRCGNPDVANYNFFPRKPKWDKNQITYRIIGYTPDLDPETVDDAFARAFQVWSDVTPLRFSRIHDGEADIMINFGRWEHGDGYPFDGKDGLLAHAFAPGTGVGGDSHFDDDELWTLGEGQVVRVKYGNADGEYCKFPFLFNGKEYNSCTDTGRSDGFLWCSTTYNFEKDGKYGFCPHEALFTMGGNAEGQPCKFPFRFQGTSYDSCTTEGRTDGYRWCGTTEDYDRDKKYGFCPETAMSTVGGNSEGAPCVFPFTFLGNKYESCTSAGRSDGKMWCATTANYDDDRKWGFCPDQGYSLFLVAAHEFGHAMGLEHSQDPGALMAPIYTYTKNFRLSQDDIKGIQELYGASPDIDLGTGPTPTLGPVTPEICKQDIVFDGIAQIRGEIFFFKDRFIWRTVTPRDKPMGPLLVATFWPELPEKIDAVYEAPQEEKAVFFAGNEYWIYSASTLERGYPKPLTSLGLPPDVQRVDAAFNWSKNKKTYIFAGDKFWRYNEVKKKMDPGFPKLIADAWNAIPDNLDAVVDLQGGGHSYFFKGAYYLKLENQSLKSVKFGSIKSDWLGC
Nature of the data set: cell-based or functional assay.

The target in a further data set is T3, proMMP-9 (human, UniProt P14780 20-707).
T3 construct: also called 92 kDa proMMP-9
Nature of the data set: phage binding (attachment) assay.

The target in another data set is APMA-activated MMP-9 (human, UniProt P14780 94-707). Nature of the data set: cell-based or functional assay.

Bridge positions count the residues as written; N and C are the ends. Ends that are not written are not given here.

T3 sequence (P14780 20-707): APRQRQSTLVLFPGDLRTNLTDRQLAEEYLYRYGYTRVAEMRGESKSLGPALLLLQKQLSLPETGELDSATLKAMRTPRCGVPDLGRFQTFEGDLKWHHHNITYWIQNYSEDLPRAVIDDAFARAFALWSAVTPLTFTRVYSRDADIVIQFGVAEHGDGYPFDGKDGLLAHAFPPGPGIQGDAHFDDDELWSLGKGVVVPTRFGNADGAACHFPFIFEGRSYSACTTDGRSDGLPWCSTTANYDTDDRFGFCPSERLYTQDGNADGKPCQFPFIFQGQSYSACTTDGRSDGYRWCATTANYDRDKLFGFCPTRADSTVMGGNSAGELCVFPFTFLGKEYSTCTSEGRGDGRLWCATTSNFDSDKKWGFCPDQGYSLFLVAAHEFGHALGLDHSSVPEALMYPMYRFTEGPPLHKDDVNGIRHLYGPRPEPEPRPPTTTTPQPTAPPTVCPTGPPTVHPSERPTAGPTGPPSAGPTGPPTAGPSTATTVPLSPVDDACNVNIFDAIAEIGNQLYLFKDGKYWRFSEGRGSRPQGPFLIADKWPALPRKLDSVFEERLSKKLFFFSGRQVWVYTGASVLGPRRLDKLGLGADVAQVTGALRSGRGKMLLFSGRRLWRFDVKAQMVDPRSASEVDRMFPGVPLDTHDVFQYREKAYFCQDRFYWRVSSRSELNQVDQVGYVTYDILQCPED

In the case of RAVRALWRC [RAVRALWRC], the solubility entry in data set [1] is given as “highly soluble”. In the case of CTTHWGFTLC (disulfide 1-10 (inferred)) [cyclic CTTHWGFTLC synthetic peptide], the “IC50, β-casein degradation (SDS-PAGE)” value with proMMP-2 was 5 µg/mL; in the data set with APMA-activated MMP-2, approximately 5 µg/mL.

B1: phage clone displaying CRRHWGFEFC (from the CX9 library) (peptide)
peptide: CRRHWGFEFC
notes: not shown: phage coat protein to which the peptide is fused
For the molecule B1, in the data set with proMMP-9, the binding result is on record as “no binding”.

B2: phage clone displaying CSLHWGFWWC (from the CX9 library) (peptide)
peptide: CSLHWGFWWC
notes: as for B1
In the case of B2, the binding result with proMMP-9 is reported as “no binding”. For the molecule CRRHWGFEFC (disulfide 1-10 (inferred)) [cyclic CRRHWGFEFC synthetic peptide], the “IC50, β-casein degradation (SDS-PAGE)” value with proMMP-2 is 25 µg/mL; in the data set with APMA-activated MMP-2 it was approximately 25 µg/mL. For the same molecule, the “IC50, [125I]-gelatin degradation assay” value with APMA-activated MMP-9 is approximately 10 µg/mL.
